Data published in patent US20190055314A1 (ADAGENE, published 2019).
Numbering of substitutions follows the chain as printed.

T1: monkey CD137 fused with human FC fragment (cynomolgus monkey, UniProt Q07011 24-179 (human entry), limits assumed)
T1 construct: also called Cyno CD137-Fc; not shown: human Fc fragment
T1 chain: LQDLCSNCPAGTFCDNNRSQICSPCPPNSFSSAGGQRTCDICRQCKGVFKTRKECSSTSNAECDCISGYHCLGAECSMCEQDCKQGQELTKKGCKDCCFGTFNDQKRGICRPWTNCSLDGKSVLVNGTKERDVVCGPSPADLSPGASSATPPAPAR

T2: monkey CD137 protein (Biacore) (cynomolgus monkey, UniProt Q07011 24-179 (human entry), limits assumed)
T2 construct: Construct used as SPR analyte not described; also called Cyno CD137
T2 chain: T1 chain

T3: full-length monkey CD137 on the cell surface (cynomolgus monkey, UniProt Q07011 24-179 (human entry))
T3 chain: T1 chain

T4: Hu_CRD2 (human, UniProt Q07011 46-86, limits assumed)
T4 construct: also called human CD137 CRD2
T4 chain: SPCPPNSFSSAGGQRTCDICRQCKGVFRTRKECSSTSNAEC

T5: Hu_CRD3 (human, limits assumed)
T5 construct: also called human CD137 CRD3
T5 chain: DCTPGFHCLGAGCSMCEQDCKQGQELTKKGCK

T6: Hu_CRD4 (human, UniProt Q07011 119-159, limits assumed)
T6 construct: also called human CD137 CRD4
T6 chain: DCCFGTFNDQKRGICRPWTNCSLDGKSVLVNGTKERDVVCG

T7: full-length mouse CD137 on the cell surface (mouse, UniProt P20334 24-178)
T7 sequence: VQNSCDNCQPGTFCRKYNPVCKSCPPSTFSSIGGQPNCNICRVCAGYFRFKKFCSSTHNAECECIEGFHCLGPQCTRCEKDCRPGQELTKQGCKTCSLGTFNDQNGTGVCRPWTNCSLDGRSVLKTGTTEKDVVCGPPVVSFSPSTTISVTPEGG

B1: AG10059 (antibody, human IgG4 S228P, kappa, V domains shown)
VH: EVQLVESGGGLVQPGGSLRLSCAASGYSITSGHYWAWIRQAPGKGLEWVSSISGYGSTTYYADSVKGRFTISRDNSKNTLYLQLNSLRAEDTAVYYCARGGSDAVLGDWFAYWGQGTLVTVSS
VL: DIQLTQSPSSLSASVGDRVTITCRASQGIGSFLAWYQQKPGKAPKLLIYDASNLETGVPSRFSGSGSGTDFTLTISSLQPEDFATYYCQQGYYLWTFGQGTKVEIKR
B2: AG10058 (antibody, human IgG4 S228P, kappa, V domains shown)
VH: EVQLVESGGGLVQPGGSLRLSCAASGFSLSTSGVGVGWIRQAPGKGLEWLALIDWDDDKYYSPSLKSRLTISRDNSKNTLYLQLNSLRAEDTAVYYCARGGSDTVLGDWFAYWGQGTLVTVSS
VL: B1 VL with G28S, I29V, G30S, S31P, F32Y, N53S, T56S, Y93S

What was measured:
[1] = molecular target: T8, human CD137 fused with human FC fragment (human, UniProt Q07011 24-186, limits assumed); assay: ELISA, coated CD137-Fc
T8 construct: may be the same reagent as CD137-hisFc; also called human CD137 (FC fusion protein); not shown: human Fc fragment

[2] = molecular target: T1, monkey CD137 fused with human FC …; assay: ELISA, coated CD137-Fc
Hu_GQ109AA = molecular target: T9, Hu_GQ109AA (human, UniProt Q07011 18-255); assay: flow cytometry, HEK293F
T9 construct: On HEK293F

Hu_EL111AA = molecular target: T10, Hu_EL111AA (human, UniProt Q07011 18-255); assay: flow cytometry, HEK293F
T10 construct: On HEK293F

Hu_TN137AA = molecular target: T11, Hu_TN137AA (human, UniProt Q07011 18-255); assay: flow cytometry, HEK293F
T11 construct: On HEK293F

[3] = molecular target: T2, monkey CD137 protein (Biacore); assay: SPR Biacore, IgG captured
[4] = molecular target: T12, full-length human CD137 on the cell surface (human, UniProt Q07011 18-255); assay: cell-based or functional assay
[5] = molecular target: T3, full-length monkey CD137 on the cell …; assay: cell-based or functional assay
Hu_CRD2 = molecular target: T4, Hu_CRD2; assay: flow cytometry, yeast display
[6] = molecular target: T12, full-length human CD137 on the cell …; assay: flow cytometry, yeast display
Hu_CRD3 = molecular target: T5, Hu_CRD3; assay: flow cytometry, yeast display [Cont.]
Hu_CRD4 = molecular target: T6, Hu_CRD4; assay: flow cytometry, yeast display [Cont.]
Hu_CRD1-CRD2 = molecular target: T13, Hu_CRD1-CRD2 (human, UniProt Q07011 24-86, limits assumed); assay: flow cytometry, yeast display [Cont.]
T13 construct: also called two CRD units (CRD1-CRD2) of human CD137

Hu_CRD2-CRD3 = molecular target: T14, Hu_CRD2-CRD3 (human, UniProt Q07011 46-118, limits assumed); assay: flow cytometry, yeast display [Cont.]
T14 construct: also called two CRD units (CRD2-CRD3) of human CD137

Hu_CRD1-CRD2-CRD3 = molecular target: T15, Hu_CRD1-CRD2-CRD3 (human, UniProt Q07011 24-118, limits assumed); assay: flow cytometry, yeast display [Cont.]
T15 construct: also called three CRD units (CRD1-CRD2-CRD3) of human CD137

Hu_CRD3-CRD4 = molecular target: T16, Hu_CRD3-CRD4 (human, UniProt Q07011 87-159, limits assumed); assay: flow cytometry, yeast display [Cont.]
T16 construct: also called two CRD units (CRD3-CRD4) of human CD137

Hu_CRD2-CRD3-CRD4 = molecular target: T17, Hu_CRD2-CRD3-CRD4 (human, UniProt Q07011 46-159, limits assumed); assay: flow cytometry, yeast display [Cont.]
T17 construct: also called three CRD units (CRD2-CRD3-CRD4) of human CD137

[7] = molecular target: T12, full-length human CD137 on the cell …; assay: flow cytometry, HEK293F cells expressing CD137 or mutant [Cont.]
[8] = molecular target: T7, full-length mouse CD137 on the cell …; assay: as above
[9] = molecular target: T12, full-length human CD137 on the cell …; assay: flow cytometry, PMA/ionomycin-activated human T cells, antibody 100 nM
[10] = molecular target: T18, CD137-hisFc fusion protein (Sino Biological Cat 10041-H03H) (human, UniProt Q07011 24-186); assay: competition ELISA, human CD137-Fc-His coated, biotinylated CD137L as blocked ligand, neutravidin-HRP
T18 construct: Bought; also called recombinant human CD137 (fused with human Fc and His tag); not shown: His tag and human Fc

[11] = molecular target: T12, full-length human CD137 on the cell …; assay: flow cytometry ligand competition, HEK293F cells with human CD137, antibody 100 nM then 33 nM biotinylated CD137L, streptavidin-Alexa 647

T10 sequence (Q07011 18-255 E111A/L112A): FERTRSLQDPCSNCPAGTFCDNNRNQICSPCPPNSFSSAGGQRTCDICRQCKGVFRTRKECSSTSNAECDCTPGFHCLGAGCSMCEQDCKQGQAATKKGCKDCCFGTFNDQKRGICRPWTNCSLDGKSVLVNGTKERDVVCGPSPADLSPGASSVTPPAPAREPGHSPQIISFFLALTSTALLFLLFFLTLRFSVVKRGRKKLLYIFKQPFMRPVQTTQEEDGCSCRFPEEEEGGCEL
T11 sequence (Q07011 18-255 T137A/N138A): as the sequence (Q07011 18-255 E111A/L112A) above, with A94E, A95L, T120A, N121A counted along it
T9 sequence (Q07011 18-255 G109A/Q110A): as the sequence (Q07011 18-255 E111A/L112A) above, with G92A, Q93A, A94E, A95L counted along it

Binder | Kd [1] | Kd [2] | binding result (Hu_GQ109AA) | binding result (Hu_EL111AA) | binding result (Hu_TN137AA) | Kd [3] | NFκB luciferase reporter, 293T cells with human CD137: EC50 (read off the curve) [4] | NFκB luciferase reporter, 293T cells with monkey CD137: EC50 (read off the curve) [5] | % in upper right quadrant (Hu_CRD2) | Mean (Hu_CRD2) | % in upper right quadrant [6] | Mean [6] | % in upper right quadrant (Hu_CRD3) | Mean (Hu_CRD3) | % in upper right quadrant (Hu_CRD4) | Mean (Hu_CRD4) | % in upper right quadrant (Hu_CRD1-CRD2) | Mean (Hu_CRD1-CRD2) | % in upper right quadrant (Hu_CRD2-CRD3) | Mean (Hu_CRD2-CRD3) | also measured
B1 | 0.8 nM | 0.4 nM | binds | binds | binds | 23.1 nM | ~10 nM | ~1 nM | 0.2% | 6280 | 25.9% | 58600 | 0.25% | 6200 | 0.17% | 16100 | 0.31% | 12000 | 0.15% | 7460 | % in upper right quadrant (Hu_CRD1-CRD2-CRD3): 49.4%; Mean (Hu_CRD1-CRD2-CRD3): 15100; % in upper right quadrant (Hu_CRD3-CRD4): 0.39%; Mean (Hu_CRD3-CRD4): 11700; % in upper right quadrant (Hu_CRD2-CRD3-CRD4): 0.25%; Mean (Hu_CRD2-CRD3-CRD4): 14900; % in upper right quadrant [7]: 34.7%; % in upper right quadrant [8]: 0.041%; % of cells positive for antibody binding [9]: 45.1%; IC50 (read off the curve) [10]: ~100 nM; % in upper right quadrant (CD137L signal) [11]: 52.9%; Median (APC signal of bound biotinylated CD137L) [11]: 46500
B2 | 0.2 nM | 0.3 nM | binds | binds | binds | 9.3 nM | ~5 nM | ~1 nM | 0.24% | 13200 | 30.7% | 64700 | 0.15% | 10400 | 0.15% | 16100 | 0.18% | 3680 | 0.11% | 14600 | % in upper right quadrant (Hu_CRD1-CRD2-CRD3): 55.6%; Mean (Hu_CRD1-CRD2-CRD3): 20000; % in upper right quadrant (Hu_CRD3-CRD4): 0.19%; Mean (Hu_CRD3-CRD4): 18200; % in upper right quadrant (Hu_CRD2-CRD3-CRD4): 0.91%; Mean (Hu_CRD2-CRD3-CRD4): 7680; % in upper right quadrant [7]: 27.3%; % in upper right quadrant [8]: 31.1%; % of cells positive for antibody binding [9]: 52%; IC50 (read off the curve) [10]: ~40 nM; % in upper right quadrant (CD137L signal) [11]: 37.6%; Median (APC signal of bound biotinylated CD137L) [11]: 22300
